Experiment [1] deals with Recombinant T156-phosphorylated AP2 core (UniProt P18484). Kind of experiment: ITC; Nano ITC, 10°C, 100 mM TRIS pH 8, 250 mM NaCl, 0.25 mM TCEP; 0.05-0.1 mM Pcore in the cell, 2-3 mM PHear titrated in. Background: In ITC the heat of successive injections is recorded.
Experiment [2] deals with μ2T156-phosphorylated AP2, endogenous in RPE cells (human (endogenous in RPE)) (UniProt O95782). The experiment in a line: co-IP; native co-immunoprecipitation with anti-AP2α antibody AP6 on protein G-Sepharose from RPE cell lysates (0.1% NP40), overnight at 4°C; western blot.
For experiment [3], the target named is TGN38 cytoplasmic domain peptide, lipid-linked, in PtdIns4,5P2 liposomes. The experiment in a line: SPR; BIAcore T200, liposomes (PC/PE with 4% PtdIns4,5P2 and 2% lipid-linked peptide) on an L1 sensor; core or Pcore injected at 50 nM to 50 μM; 10 mM Tris pH 8.7, 250 mM NaCl, 1 mM DTT; apparent constants from fast and slow dissociation amplitudes.
The target in experiment [4] is NECAP1 PHear domain, 1-133 (UniProt Q8NC96). The experiment in a line: ITC. To be noted: reference: unphosphorylated peptide …; sites T156.
Experiment [5] concerns the target NECAP1 PHear domain (NECAP 1-133), wild type (UniProt Q8NC96). The experiment in a line: ITC; Nano ITC, 12°C, 75 mM HEPES pH 7.4, 0.25 mM TCEP; PHear domains in the cell, peptides at 1-5 mM titrated in.
For experiment [6], the target named is T1, NECAP1 PHear domain (NECAP 1-133), wild type (UniProt Q8NC96 1-133).
T1 chain: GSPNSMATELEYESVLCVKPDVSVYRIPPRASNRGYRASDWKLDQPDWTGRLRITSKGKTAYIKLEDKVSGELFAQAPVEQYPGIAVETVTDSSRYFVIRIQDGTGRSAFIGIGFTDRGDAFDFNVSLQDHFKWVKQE
The experiment in a line: ITC; + FxDxF peptide.

In experiment [7] the target is T2, NECAP1 PHear (1-133) R32D (UniProt Q8NC96 1-133, R32D).
T2 sequence: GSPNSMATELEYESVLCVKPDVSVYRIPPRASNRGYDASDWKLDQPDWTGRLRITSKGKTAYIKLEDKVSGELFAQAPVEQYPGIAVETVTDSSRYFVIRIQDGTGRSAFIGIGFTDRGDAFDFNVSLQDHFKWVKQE
Kind of experiment: ITC.

In experiment [8] the target is T3, NECAP1 PHear (1-133) S88A (UniProt Q8NC96 1-133, S88A).
T3 sequence: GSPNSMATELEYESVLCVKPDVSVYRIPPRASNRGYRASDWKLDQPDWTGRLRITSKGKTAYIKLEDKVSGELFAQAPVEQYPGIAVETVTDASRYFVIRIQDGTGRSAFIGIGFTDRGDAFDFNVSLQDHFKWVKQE
Kind of experiment: ITC.

The target of experiment [9] is T4, NECAP1 PHear (1-133) R32D (UniProt Q8NC96 1-133, R32D).
T4 construct: NECAP1 PHear domain, residues 1-133; Not in the plasmid list; source: E. coli BL21DE3 pLysS, purified (GST sepharose, thrombin cleavage, gel filtration); not shown: GST, N-terminal, cleaved
T4 sequence: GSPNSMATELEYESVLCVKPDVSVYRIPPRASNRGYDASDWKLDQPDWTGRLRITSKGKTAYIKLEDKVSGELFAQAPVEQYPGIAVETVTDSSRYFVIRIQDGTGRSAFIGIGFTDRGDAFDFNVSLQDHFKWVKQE
The experiment in a line: ITC; Nano ITC, 12°C, 75 mM HEPES pH 7.4, 0.25 mM TCEP; PHear domains in the cell, peptides at 1-5 mM titrated in. To be noted: both partners purified.

Experiment [10] concerns the target T5, NECAP1 PHear (1-133) R102A (UniProt Q8NC96 1-133, R102A).
T5 construct: NECAP1 PHear domain, residues 1-133; source: E. coli BL21DE3 pLysS, purified (GST sepharose, thrombin cleavage, gel filtration); not shown: GST, N-terminal, cleaved
T5 sequence: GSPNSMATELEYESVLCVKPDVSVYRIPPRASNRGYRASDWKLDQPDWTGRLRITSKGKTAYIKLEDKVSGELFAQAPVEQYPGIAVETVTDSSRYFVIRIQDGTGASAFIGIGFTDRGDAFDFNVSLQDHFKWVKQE
Described as above. To be noted: both partners purified.

Experiment [11] addresses T6, NECAP1 PHear (1-133) S88A (UniProt Q8NC96 1-133, S88A).
T6 construct: NECAP1 PHear domain, residues 1-133; source: E. coli BL21DE3 pLysS, purified (GST sepharose, thrombin cleavage, gel filtration); not shown: GST, N-terminal, cleaved
T6 sequence: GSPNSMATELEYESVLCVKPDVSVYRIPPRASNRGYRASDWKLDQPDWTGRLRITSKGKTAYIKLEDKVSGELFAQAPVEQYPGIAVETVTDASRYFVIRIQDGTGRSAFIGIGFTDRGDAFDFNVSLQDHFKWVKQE
The description is as above. To be noted: both partners purified.

In experiment [12] the target is T7, NECAP1 PHear (1-133) R102A (UniProt Q8NC96 1-133, R102A).
T7 sequence: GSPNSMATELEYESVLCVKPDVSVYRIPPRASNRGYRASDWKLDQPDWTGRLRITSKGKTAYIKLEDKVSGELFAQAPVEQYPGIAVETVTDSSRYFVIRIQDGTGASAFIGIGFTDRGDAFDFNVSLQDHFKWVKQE
Kind of experiment: ITC.

Square brackets hold non-standard residues; d marks the D form. Ends that are not written are not given here. pT = C[C@@H](OP(=O)(O)O)[C@H](N)C(=O)O A value given as a limit tells only on which side of the number the result lay.

For orientation: Kd means the concentration at which binding is half-saturated.

Chain of μ2T156-phosphorylated AP2, endogenous in RPE cells (human (endogenous in RPE)) (O95782 whole entry, chain 1 of 4, the tested form may be a part): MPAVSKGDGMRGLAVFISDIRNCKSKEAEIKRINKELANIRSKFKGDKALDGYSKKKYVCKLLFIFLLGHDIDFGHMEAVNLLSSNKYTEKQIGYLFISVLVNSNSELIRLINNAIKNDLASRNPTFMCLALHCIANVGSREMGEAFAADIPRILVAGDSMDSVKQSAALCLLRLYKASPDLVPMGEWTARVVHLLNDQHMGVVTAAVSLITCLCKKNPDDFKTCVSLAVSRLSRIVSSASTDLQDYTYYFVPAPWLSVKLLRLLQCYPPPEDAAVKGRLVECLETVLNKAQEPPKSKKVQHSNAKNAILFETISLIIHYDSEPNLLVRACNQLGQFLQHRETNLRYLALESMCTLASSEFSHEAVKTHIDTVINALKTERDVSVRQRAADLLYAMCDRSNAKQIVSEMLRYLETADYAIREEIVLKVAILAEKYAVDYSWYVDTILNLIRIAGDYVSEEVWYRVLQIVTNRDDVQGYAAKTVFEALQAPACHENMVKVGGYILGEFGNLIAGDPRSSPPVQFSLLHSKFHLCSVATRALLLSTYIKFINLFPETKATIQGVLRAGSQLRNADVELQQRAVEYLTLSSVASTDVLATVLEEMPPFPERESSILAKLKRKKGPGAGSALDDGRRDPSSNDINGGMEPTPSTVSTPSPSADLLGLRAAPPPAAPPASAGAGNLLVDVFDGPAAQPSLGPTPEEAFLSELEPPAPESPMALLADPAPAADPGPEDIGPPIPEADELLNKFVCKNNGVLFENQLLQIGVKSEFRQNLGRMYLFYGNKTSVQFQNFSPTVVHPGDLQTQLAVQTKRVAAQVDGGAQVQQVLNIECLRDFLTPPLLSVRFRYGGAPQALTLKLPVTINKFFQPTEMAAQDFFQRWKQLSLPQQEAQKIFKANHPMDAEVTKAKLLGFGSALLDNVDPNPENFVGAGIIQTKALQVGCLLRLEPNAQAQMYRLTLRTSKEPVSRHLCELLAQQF
Chain of μ2T156-phosphorylated AP2, endogenous in RPE cells (human (endogenous in RPE)) (P63010 whole entry, chain 2 of 4, further chain, the tested form may be a part): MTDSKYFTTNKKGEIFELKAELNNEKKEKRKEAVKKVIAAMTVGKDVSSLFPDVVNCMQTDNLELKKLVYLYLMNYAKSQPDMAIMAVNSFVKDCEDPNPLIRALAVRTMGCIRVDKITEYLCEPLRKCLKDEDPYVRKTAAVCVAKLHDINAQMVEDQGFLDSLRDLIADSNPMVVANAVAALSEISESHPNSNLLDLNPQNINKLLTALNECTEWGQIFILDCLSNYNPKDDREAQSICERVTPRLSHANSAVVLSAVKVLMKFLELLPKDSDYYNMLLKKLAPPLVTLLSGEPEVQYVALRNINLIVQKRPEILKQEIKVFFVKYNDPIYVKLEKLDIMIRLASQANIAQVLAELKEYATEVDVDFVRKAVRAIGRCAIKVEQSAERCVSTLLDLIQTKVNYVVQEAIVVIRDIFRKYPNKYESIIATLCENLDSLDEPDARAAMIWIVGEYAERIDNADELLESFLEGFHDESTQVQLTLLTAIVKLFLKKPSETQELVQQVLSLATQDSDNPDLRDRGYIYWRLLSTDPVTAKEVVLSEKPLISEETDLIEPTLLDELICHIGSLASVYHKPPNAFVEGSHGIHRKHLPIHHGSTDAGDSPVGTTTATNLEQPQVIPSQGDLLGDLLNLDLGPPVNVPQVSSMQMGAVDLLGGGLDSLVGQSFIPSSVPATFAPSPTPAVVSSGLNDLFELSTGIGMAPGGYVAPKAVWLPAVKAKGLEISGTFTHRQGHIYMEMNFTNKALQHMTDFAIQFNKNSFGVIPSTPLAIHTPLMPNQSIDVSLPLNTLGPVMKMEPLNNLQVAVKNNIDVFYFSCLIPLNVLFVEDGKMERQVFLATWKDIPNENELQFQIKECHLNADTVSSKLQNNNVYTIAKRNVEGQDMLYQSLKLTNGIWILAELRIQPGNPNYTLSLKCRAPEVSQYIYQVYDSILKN
Chain of μ2T156-phosphorylated AP2, endogenous in RPE cells (human (endogenous in RPE)) (Q96CW1 whole entry, chain 3 of 4, further chain, the tested form may be a part): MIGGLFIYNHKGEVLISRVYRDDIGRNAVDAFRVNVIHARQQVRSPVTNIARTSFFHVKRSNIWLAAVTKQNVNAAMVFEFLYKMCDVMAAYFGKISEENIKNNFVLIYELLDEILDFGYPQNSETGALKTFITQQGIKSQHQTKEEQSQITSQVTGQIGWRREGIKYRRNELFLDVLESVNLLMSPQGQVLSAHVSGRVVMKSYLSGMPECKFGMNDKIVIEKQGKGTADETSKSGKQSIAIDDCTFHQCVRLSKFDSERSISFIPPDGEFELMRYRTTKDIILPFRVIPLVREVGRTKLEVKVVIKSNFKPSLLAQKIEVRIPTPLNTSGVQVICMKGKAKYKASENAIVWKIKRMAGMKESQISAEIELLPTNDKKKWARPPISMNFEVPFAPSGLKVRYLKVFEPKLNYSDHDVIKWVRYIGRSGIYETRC
Chain of μ2T156-phosphorylated AP2, endogenous in RPE cells (human (endogenous in RPE)) (P53680 whole entry, chain 4 of 4, further chain, the tested form may be a part): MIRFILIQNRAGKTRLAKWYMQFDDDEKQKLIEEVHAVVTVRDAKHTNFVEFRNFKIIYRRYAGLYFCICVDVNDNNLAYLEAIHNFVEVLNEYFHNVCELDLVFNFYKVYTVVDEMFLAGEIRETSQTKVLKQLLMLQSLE
Chain of Recombinant T156-phosphorylated AP2 core (UniProt P18484) (P18484 whole entry, chain 1 of 4): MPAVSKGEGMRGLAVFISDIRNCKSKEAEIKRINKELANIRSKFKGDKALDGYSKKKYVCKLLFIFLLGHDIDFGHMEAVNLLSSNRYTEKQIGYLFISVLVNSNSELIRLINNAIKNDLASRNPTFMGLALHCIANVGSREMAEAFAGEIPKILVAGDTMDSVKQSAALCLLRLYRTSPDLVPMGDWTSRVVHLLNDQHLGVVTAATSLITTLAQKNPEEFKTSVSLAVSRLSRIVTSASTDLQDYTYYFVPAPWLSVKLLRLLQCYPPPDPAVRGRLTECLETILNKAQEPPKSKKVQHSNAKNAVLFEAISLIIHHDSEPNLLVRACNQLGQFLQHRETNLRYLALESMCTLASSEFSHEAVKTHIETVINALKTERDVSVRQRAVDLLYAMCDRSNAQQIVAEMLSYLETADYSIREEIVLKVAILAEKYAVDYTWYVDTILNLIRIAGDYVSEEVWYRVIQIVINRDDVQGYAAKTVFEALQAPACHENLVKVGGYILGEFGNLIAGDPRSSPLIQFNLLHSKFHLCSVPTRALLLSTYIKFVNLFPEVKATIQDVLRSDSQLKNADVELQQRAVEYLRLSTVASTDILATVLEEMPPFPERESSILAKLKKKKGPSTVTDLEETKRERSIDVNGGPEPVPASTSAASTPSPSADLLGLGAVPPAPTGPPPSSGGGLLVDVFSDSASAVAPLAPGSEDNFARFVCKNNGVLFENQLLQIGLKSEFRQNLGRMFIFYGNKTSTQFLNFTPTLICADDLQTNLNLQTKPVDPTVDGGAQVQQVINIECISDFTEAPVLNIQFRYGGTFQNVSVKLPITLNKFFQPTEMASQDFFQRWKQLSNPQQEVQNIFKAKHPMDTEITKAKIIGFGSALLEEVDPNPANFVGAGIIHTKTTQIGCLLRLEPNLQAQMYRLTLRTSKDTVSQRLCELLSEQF
Chain of Recombinant T156-phosphorylated AP2 core (UniProt P18484) (P63010 1-592, chain 2 of 4, further chain): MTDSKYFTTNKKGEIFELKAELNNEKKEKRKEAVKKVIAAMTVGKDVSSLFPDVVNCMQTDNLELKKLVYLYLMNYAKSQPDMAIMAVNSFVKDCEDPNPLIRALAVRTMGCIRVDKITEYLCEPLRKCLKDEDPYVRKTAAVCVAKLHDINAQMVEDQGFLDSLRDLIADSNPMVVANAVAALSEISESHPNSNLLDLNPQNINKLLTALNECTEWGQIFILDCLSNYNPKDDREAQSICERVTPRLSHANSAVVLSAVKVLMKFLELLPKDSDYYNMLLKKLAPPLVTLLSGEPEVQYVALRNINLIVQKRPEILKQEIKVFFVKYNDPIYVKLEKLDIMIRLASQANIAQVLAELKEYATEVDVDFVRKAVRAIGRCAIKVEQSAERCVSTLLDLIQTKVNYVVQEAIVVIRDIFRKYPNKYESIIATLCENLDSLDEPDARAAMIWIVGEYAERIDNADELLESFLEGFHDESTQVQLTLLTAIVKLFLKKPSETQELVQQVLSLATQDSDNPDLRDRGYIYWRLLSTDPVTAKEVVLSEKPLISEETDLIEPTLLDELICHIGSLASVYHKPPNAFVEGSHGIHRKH
Chain of Recombinant T156-phosphorylated AP2 core (UniProt P18484) (P84092 whole entry, chain 3 of 4, further chain): as the sequence (Q96CW1 whole entry, chain 3 of 4, further chain, the tested form may be a part) above
Chain of Recombinant T156-phosphorylated AP2 core (UniProt P18484) (P62743 whole entry, chain 4 of 4, further chain): as the sequence (P53680 whole entry, chain 4 of 4, further chain, the tested form may be a part) above

In the case of “NECAP1 PHear domain (NECAP 1-133), wild type (from UniProt Q8NC96 1-133) (domain or fragment)”, in experiment [1], the Kd was 8 µM.
“mRuby2-Flag-GGGS-NECAP1 R90A (from UniProt Q8NC96-1 1-275) (natural protein)”: the percent reduction in binding against NECAP1-mRuby2 WT in experiment [2] was determined as 60%.
Consider “Recombinant T156-phosphorylated AP2 core (from UniProt P18484 1-938; P63010 1-592; P84092 1-435; P62743 1-142) (complex)”, for which, in [3], the fold increase in liposome-binding affinity against the unphosphorylated core turned out to be 3 fold.
Regarding “AP2 μ2 subunit (recombinant AP2 core / Pcore, GST-μ2 linkers, μ2 linker peptides) μ2 linker, 149-163 (from UniProt P84092) pT156 peptide”, the KD entry in experiment [4] is listed as “gained; reference no binding detected”.

B1: T156-phosphorylated μ2 linker peptide (residues 149–163) (peptide)
peptide: SQITSQV[pT]GQIGWRR
notes: also called Peptide μ2linker Phos; phosphorylated μ2 peptide; source: synthetic peptide (Genscript)
Turning to B1, the Kd in experiment [5] is 55 µM; in experiment [6], 44.9 µM; in experiment [7] it was 126 µM; in [8] it was > 300 µM; in [12] it was 57 µM. The binding result in experiment [9], in experiment [10] and in [11] was “binds” in each case.

For the origin of these results see article PMC6706699 (Developmental Cell, 2019).
